What was measured:
Experiment in all cases: cell-based or functional assay
[1] = biological target: HIV-1 MGRM-C-027 Env (pseudovirus) (HIV-1)
[2] = biological target: HIV-1 envelope glycoprotein (Env) of isolate 92TH021 (HIV-1)
[3] = biological target: HIV-1 NL43 envelope glycoprotein (Env) (HIV-1)
[4] = biological target: HIV-1 93UG077 envelope glycoprotein (Env) (HIV-1)
[5] = biological target: HIV-1 MGRM-D-001 envelope glycoprotein (Env) on virus (HIV-1, clade D, isolate MGRM-D-001)
[6] = biological target: HIV-1 92UG024 envelope glycoprotein (Env) on virus (HIV-1, clade D, isolate 92UG024)
[7] = biological target: HIV-1 92UG005 envelope glycoprotein (Env) on virus (HIV-1, clade D, isolate 92UG005)
[8] = biological target: HIV-1 Env of isolate MGRM-A-010 (clade A) (HIV-1)
[9] = biological target: HIV-1 envelope glycoprotein (Env) of isolate MG RM-A-002 (HIV-1)
[10] = biological target: HIV-1 Env of isolate MGRM-F1-014 (subtype F) (HIV-1)
[11] = biological target: HIV-1 envelope glycoprotein (Env) of isolate MG RM-A-008 (HIV-1)
[12] = biological target: HIV-1 JRCSF Env (HIV-1 isolate JRCSF (clade B)) (UniProt P20871)
[13] = biological target: HIV-1 APV13 envelope glycoprotein (Env), clade B pseudovirus (HIV-1)
[14] = biological target: HIV-1 JRCSF envelope glycoprotein (Env), clade B pseudovirus (HIV-1)
[15] = biological target: HIV-1 92BR020 envelope glycoprotein (Env), clade B pseudovirus (HIV-1)

Sequence of 5329_C19 (PGT-136) (antibody) (VH): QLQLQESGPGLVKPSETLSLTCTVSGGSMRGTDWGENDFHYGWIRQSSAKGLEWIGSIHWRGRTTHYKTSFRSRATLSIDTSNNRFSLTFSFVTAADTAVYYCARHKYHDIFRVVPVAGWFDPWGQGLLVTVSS
Sequence of 5329_C19 (PGT-136) (antibody) (VL): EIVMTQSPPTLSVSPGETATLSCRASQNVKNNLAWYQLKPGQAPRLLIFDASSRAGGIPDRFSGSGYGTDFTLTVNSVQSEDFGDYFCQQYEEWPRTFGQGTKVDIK

5123_A06 (PGT-125) (antibody) gave a Neutralization by PGT-125, IC50 [1] of over 10 µg/mL, a Neutralization by PGT-125, IC80 [1] of over 10 µg/mL and a Neutralization by PGT-125, IC90 [1] of over 10 µg/mL. For the same substance, the Neutralization by PGT-125, IC95 [1] was over 10 µg/mL.
For 5141_B17 (PGT-126) (antibody), the Neutralization IC80 [2] was 1.62 µg/mL, the Neutralization IC90 [2] was 6.91 µg/mL and the Neutralization IC95 [2] was over 10 µg/mL. It also gave a neutralization IC50 [2] of 0.115 µg/mL.
With 5329_C19 (PGT-136) (antibody) the Neutralization IC80 [3] was over 10 µg/mL, the Neutralization IC90 [3] was over 10 µg/mL and the Neutralization IC95 [3] was over 10 µg/mL. The neutralization IC50 [3] was over 10 µg/mL, the Neutralization IC80 [4] was over 10 µg/mL and the Neutralization IC90 [4] was over 10 µg/mL. For the same substance, the Neutralization IC95 [4] was over 10 µg/mL and the neutralization IC50 [4] was over 10 µg/mL.
Work on 4877_D15 (PGT-122) (antibody) yielded a Neutralization IC80 [5] of 4.48 µg/mL, a Neutralization IC90 [5] of over 10 µg/mL and a Neutralization IC95 [5] of over 10 µg/mL. It also gave a neutralization IC50 [5] of 0.867 µg/mL, a Neutralization IC80 [6] of over 10 µg/mL and a Neutralization IC90 [6] of over 10 µg/mL. It also gave a Neutralization IC95 [6] of over 10 µg/mL, a neutralization IC50 [6] of over 10 µg/mL and a Neutralization IC80 [7] of over 10 µg/mL. The Neutralization IC90 [7] was over 10 µg/mL, the Neutralization IC95 [7] was over 10 µg/mL and the neutralization IC50 [7] was over 10 µg/mL.
In the case of 1496_C09 (PG9) (TCN-109) (antibody), the Neutralization IC80 [8] is reported as 0.121 µg/mL, the Neutralization IC90 [8] is reported as 0.242 µg/mL and the Neutralization IC95 [8] is reported as 0.456 µg/mL. The neutralization IC50 [8] was 0.0375 µg/mL.
Work on PGV04 (antibody) yielded an IC50 [9] of 0.093 µg/mL, an IC50 (µg/mL), pseudovirus neutralization [10] of 0.02 µg/mL and an IC50 [11] of 0.555 µg/mL.
With 4838_L06 (PGT-121) (antibody) the Neutralization IC90 [12] was 0.223 µg/mL and the Neutralization IC95 [12] was 0.417 µg/mL.
4858_P08 (PGT-123) (antibody) was tested, and the IC50, pseudovirus neutralization [13] was 0.222 µg/mL, the IC80 (pseudovirus neutralization) [13] was 0.879 µg/mL and the IC90 (pseudovirus neutralization) [13] was 1.87 µg/mL. For the same substance, the IC95 (pseudovirus neutralization) [13] was 3.5 µg/mL, the IC50, pseudovirus neutralization [14] was 0.0423 µg/mL and the IC80 (pseudovirus neutralization) [14] was 0.143 µg/mL. The IC90 (pseudovirus neutralization) [14] was 0.289 µg/mL, the IC95 (pseudovirus neutralization) [14] was 0.547 µg/mL and the IC50, pseudovirus neutralization [15] was 0.013 µg/mL. The IC80 (pseudovirus neutralization) [15] was 0.039 µg/mL, the IC90 (pseudovirus neutralization) [15] was 0.0741 µg/mL and the IC95 (pseudovirus neutralization) [15] was 0.134 µg/mL.
